These results are taken from the domain aggregation screens of Martell et al. (2025).

This data set is described as follows: soluble fraction after stress (log2 fold change); higher = more stays soluble; pooled small domains, quantitative proteomics. Particulars: stress: 50 degC. Put shortly: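 Pooled custom libraries of small protein domains were measured in a high-throughput format, with quantitative proteomics as the read-out. Each library was stressed at 50°C. Aggregation propensity is given as the base-two logarithm of the fold change in how much of each protein stays soluble after the stress. Higher values mean a larger share of the protein remains in solution.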
For “HMSQDLVVLGDSMLNNALKAFHIDPNAIKKKYWDKLILDYHLKSKEEVLTEIALGKKINVMVAHQLTSIMD”, the “soluble fraction (log2)” value is -0.0721.
Turning to “HMERPYNGKQMEYHEGGVEKKETLFVEGGLSRVIQWDESGQKRSEVNISPTGVRREQYWDSSGKAIAKPS”, the “soluble fraction (log2)” value was determined as 0.228.
Turning to “HMFENPRALLEMMISLGNEQGLINMARDIVSAGEFRRLELAAGGDRRKLARMLIDHLVEVAPRLP”, the “soluble fraction (log2)” value was -0.394.
Turning to “HMEYNLTLEELNRDLYIRGEIWNVGDVVKTTDGDEGTIIRKGTNYVVFEDLRRVWLHNLEEVK”, the “soluble fraction (log2)” value is -1.85.
The same measure for “HMSSHSAEAVRHRIKSMIDHEARDGDVLSDDRIVELLNQAGIDIARRTVAKYREALRIPSSVERKRRLKA”: 0.0377; for “HMRFMRVSQSKSKNSTSLYIIESVYTKDNKHTTRIVKKLGTVEELSKEHEDPLAWAKEVAKQMTEEAEQN”: -0.347.
Regarding “HMDTRKEREIALYEAALRLIASGVNPAAMKVQQIADEAGIGKGTVYEYFASKEEILHGMALH”, the “soluble fraction (log2)” value is -0.241.
The same measure for “HMSTMTGTVDTPGASLNVRTGAWGPIVGQLAHGSKVTIIGSSGDWFKISYNGATRYVHKNYVNTT”: -0.153.
Regarding “HMPEAITLRDLKTYSKQAASGYLDDHQLVLVEKEAHSEDVPEGQVIKQKPGAGASVKPGDKVEVTFSLGPE”, the “soluble fraction (log2)” value was determined as 0.0136.
The same measure for “HMTEEELLERLDAVITEYKGKPGALIPVLQLAQGIFGYLPEVALKHIARQLDKPYSEVAGVVSFYSFFTT”: 0.0488.
Regarding “HMEIFYGDDRVYTVSLHGQNNFPFRKKTSDFDYGFEDGTGDEEYLRVLDVTLSRLENEQFDLLFFQAGV”, the “soluble fraction (log2)” value was -0.203.
The same measure for “HMTKVKIDRLFSIVQMLVNRKSVTAKELADYFNVSVRTIYRDIEILSANGIPIYATQGKGGGISILEN”: -1.05; for “HMKMVSTPTGTRISLTQVKEFISNASFDDMKEILLEVLAWFKAHNLGNPFNYNRAFEFIVAH”: 0.102.
Then “HMDGPELYESMKAIVPDQLDRTIFLTGGAYTPRAQEFLARVPNQQMEKPFEFEALRSLLARLT”, with 0.0477; and “HMTAEVIYVDVGGEVNQPSVVELTDGSRVTDAIAAAGGLTEKADLTDINRAAFVSDGEKIFIPSQEE”, with -0.0513; and “HMGTSGLTIPRFVSLASGTVHMRAGPGVRYPITWIYKRLGTPLMVMAEHEFWRKVRDAEGTEGWMHRSLLS”, with -0.0684.
The same measure for “HMGLAALLQSGPVAGTVLSHQPGGKVVIAFQGQAYPLNLKGRTLQPGQSVLARMAGEQISLEVI”: -0.289; for “HMSHYDILEVDPKASATEIKQSFRKKSLQYHPDRNKSSDAHEYMTKITEAYNILGDKDKRRHYDMELKL”: 0.442.
On to “HMAKQEPTDNGYDIYKVTASVLNVRNGAGTSYAVAYQLSKEDYVEVVSIDKGWAKLKDGKYVSADWITLYK”, for which the “soluble fraction (log2)” value was -0.54.
For “HMGTLRPKGTVVFANLPIAADAKEGDMYNISDQFTTTASFKEGAGNVIPAGSNVYRTDDGFWDVL”, the “soluble fraction (log2)” value is 0.00637.
Take “HMGPGFVGGSVLSGGNRGEGDPVANAQVFITDMDDNVVAFTKTDAEGNFDMTNLAYGDYKMYVDILNK”: the “soluble fraction (log2)” value was -0.0166.
The same measure for “HMEDISLYKILRAHSIDNLKLSQWIIDSLKTKFSTIGELQDAKIDDIRMYRIQDVRIEKIKNAVTEYMA”: -0.926; for “HMVDVEMLTTVSDHIEAKLLQGILENHGIPSYSVDEESGEYMRVYMGYSIFGEKIYVRASDLLAAQGYL”: -2.25.
The same measure for “HMNVNSMIGKEGRVIEDIDNFNETGRIIVDGMEWTARAVNEQSITSGQKVVIREIQGVKAMVVPM”: 0.187.
Then “HMPEMHIYTKEGKIHITHIDENEEIKIYNPLGQIIYTGSPQDIPVLEGKGLYIIYIGKSAVEVLES”, with -1.65.
For the sequence “HMAEKAVELTENEKAIQTILSNGALEIGELKTKLELSGKQWDVALKGLAKHGITQVSKVEGVVTVGL”, the “soluble fraction (log2)” value was determined as 0.136.
Then “HMGPGDTTIPTTIIGMSLEEARNELSAAGLLVARIIPVDSNSRTGTVLKITPDAGSIIKAGSGVELEIAS”, with 0.0765; and “HMSKSPELMEKIKEFAEGYFRENGETPSNKTIAGAMGMGRSTVYYYLVDMAQRGMISYENGVISTEKIRKL”, with -1.32.
